Where no end group is shown, it is not given here.
B1: BB2702 (N-acetylated peptide …) (peptide)
peptide: Ac-HKSRALLIFQKIMWLRRQ
B2: BB2702 (N-acetylated peptide HKSRALLIFQKIMWLRRQ) (peptide)
peptide: Ac-HKSRALLIFQKIMWLRRQ
notes: Synthetic peptide, all L-amino acids, peptide bonds throughout, N-acetylated; also called BB2702 peptide

Legend:
[1] = target: 6 kinases (of the selectivity panel, with slight activity); assay: cell-based or functional assay
[2] = target: T1, MAP kinase p38α (non-phosphorylated, OH-p38α) as used in the Biacore inhibition in solution assay (human, UniProt Q16539 2-360, limits assumed); assay: Biacore 3000 inhibition in solution assay; p38α pre-incubated with peptide, free p38α captured on immobilised ureidoquinazoline compound; Biacore inhibition in solution assay
T1 construct: The text says the chip was calibrated with nonphosphorylated or phosphorylated p38α; also called MAPK14; SAPK2a
T1 sequence (Q16539 2-360 limits assumed): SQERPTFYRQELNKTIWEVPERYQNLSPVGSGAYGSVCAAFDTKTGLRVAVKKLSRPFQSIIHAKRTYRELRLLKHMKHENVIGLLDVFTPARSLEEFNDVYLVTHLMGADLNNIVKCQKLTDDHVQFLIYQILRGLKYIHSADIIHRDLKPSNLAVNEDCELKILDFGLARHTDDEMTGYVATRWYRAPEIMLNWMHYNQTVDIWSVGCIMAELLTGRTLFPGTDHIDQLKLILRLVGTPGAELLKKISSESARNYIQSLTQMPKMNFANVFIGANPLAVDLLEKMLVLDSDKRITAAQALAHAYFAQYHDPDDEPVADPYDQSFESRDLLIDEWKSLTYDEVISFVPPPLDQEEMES

[3] = target: T2, uniformly 15N,2H-labelled 6His-MAP kinase p38α (human, UniProt Q16539 2-360, limits assumed, uniformly 15N,2H-labelled); assay: NMR 1H-15N TROSY-HSQC titration, chemical shift changes in slow exchange
T2 construct: not shown: 6His tag
T2 sequence (Q16539 2-360 limits assumed): as above

p38β = p38β (UniProt Q15759 1-364, limits assumed); assay: cell-based or functional assay
Sequence of p38β (Q15759 whole entry): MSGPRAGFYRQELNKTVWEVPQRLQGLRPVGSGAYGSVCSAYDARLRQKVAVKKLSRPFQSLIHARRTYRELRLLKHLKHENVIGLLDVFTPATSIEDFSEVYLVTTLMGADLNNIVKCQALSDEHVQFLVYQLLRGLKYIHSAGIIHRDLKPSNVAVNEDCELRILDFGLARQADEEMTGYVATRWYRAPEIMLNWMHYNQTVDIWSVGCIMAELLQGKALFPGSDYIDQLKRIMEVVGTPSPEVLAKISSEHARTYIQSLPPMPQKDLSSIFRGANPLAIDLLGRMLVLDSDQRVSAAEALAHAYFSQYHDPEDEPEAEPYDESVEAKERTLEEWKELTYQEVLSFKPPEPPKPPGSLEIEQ

[4] = target: T3, MAP kinase p38α, 6-his C-myc tagged protein expressed in E. coli (human, UniProt Q16539 2-360, limits assumed); assay: cell-based or functional assay
T3 sequence (Q16539 2-360 limits assumed): as the sequence (Q16539 2-360 limits assumed) above

[5] = target: T3, MAP kinase p38α, 6-his C-myc tagged …; assay: biochemical kinase inhibition assay; biochemical enzyme assay, not Biacore

| Binder | selectivity (kinase inhibition) compared to p38α [1] | Kd [2] | Kd [3] | selectivity (kinase inhibition) compared to p38α (p38β) | IC50 (inhibition of MAP kinase p38α) [4] | IC50 for inhibition of the activation of MAP kinase p38α by MKK6 [4] | Ki [5] |
| --- | --- | --- | --- | --- | --- | --- | --- |
| B1 | 500 to 1000 fold | – | – | – | – | – | – |
| B2 | – | 25 nM | < 1000 nM | 100 fold | 7 nM | 1 nM | 7 nM |

Reference: patent US20160193281A1 (BLUEBERRY THERAPEUTICS, published 2016)
